These results are taken from patent US20060110789A1, “Methods to mediate polyketide synthase module effectiveness” (priority 2002, published 2006).

Some results are limits rather than exact numbers.

In assay [1] the target is M3+TE (module 3 of DEBS with its own N-terminal linker, fused to thioesterase) (UniProt Q03132). As to the kind of experiment: estimated from the saturation curve of the rate of tetraketide formation against M3+TE concentration at fixed M2 (kinetic, in solution).
The target in assay [2] is (5)M3+TE (module 3 of DEBS with the N-terminal linker of module 5, fused to thioesterase) (UniProt Q03132). As to the kind of experiment: estimated from the saturation curve of the rate of tetraketide formation against (5)M3+TE concentration at fixed 0.5 µM M2(4) (kinetic, in solution).
Assay [3] concerns the target (5)M5+TE (module 5 of DEBS with its own N-terminal linker, fused to thioesterase) (UniProt Q03133). The assay is described as follows: cell-based or functional assay.
Assay [4] addresses (5)M6+TE (module 6 of DEBS with the N-terminal linker of module 5, with thioesterase) (UniProt Q03133). The assay is described as follows: cell-based or functional assay.
The target in assay [5] is (5)M2+TE (module 2 of DEBS with the N-terminal linker of module 5, fused to thioesterase) (UniProt Q03131). As to the kind of experiment: cell-based or functional assay.
In assay [6] the target is (3)M5+TE (module 5 of DEBS with the N-terminal linker of module 3, fused to thioesterase) (UniProt Q03133). The assay is described as follows: cell-based or functional assay.

Broadly, the Kd is a measure of binding affinity in units of concentration. As for “M2 (module 2 of DEBS with its natural C-terminal linker) (from UniProt Q03131 1982-3404; Q03131 3408-3491) (enzyme)”, in assay [1], the Kd is 1100 nM. On to “M2(4) (module 2 of DEBS with the C-terminal linker of module 4) (from UniProt Q03131 1982-3404; Q03132 3489-3567) (enzyme)”, for which the Kd in assay [2] was 2100 nM. Consider “diketide-ACP2(4) (DEBS ACP2 with the C-terminal linker of module 4, loaded with diketide) (from UniProt Q03131 3320-3408; Q03132 3489-3567)”, for which, in assay [3], the k60 µM, fold decrease against the matched reaction (FIG. 28 C) worked out at 20 fold. As to “diketide-ACP4(Ø) (DEBS ACP4 without linker, loaded with diketide) (from UniProt Q03132 3398-3488)”, the k60 µM, fold decrease against diketide-ACP4(4) with the same module in assay [4] and in assay [5] was 10 fold throughout. Besides, the k60 µM (FIG. 29 A) in assay [3] was 0.49 min⁻¹. The substance also showed a k60 µM (FIG. 29 B) in assay [6] of 0.27 min⁻¹.

Regarding “diketide-ACP4(4) (DEBS ACP4 with its natural C-terminal linker, loaded with diketide) (from UniProt Q03132 3398-3567)”, the maximal rate of elongation of 4a, fold increase against the NAC thioester 2a in assay [3] was greater than 40 fold. In assay [6], this substance showed a k60 µM, fold decrease against the matched reaction (FIG. 28 B) of 20 fold. The substance “diketide-NovH(4) (NovH fused to the C-terminal linker of DEBS module 4, loaded with diketide) (from UniProt Q03132 3489-3567)” displayed a k60 µM in assay [4] of 0.53 min⁻¹.
